Measured values as given in patent publication US20230374140A1 (Memorial Sloan Kettering, published 2023).

Tests used:
[1] = molecular target: T1, NDC80 Peptide A … / HLA-A*02:01 complex (human); test: FACS, scFv phage on peptide-loaded T2 cells
T1 construct: whole, on cells; On peptide-pulsed T2 cells (HLA-A*02:01+); also called NDC80/HLA-A*02:01 complex; NDC80/MHC I
Text: 34 human phage scFv libraries were used to pan against NDC80/HLA-A*02:01 complex. In order to avoid the conformational change of MHC I complex introduced by immobilizing the protein complex onto plastic surfaces, cell panning was used in place of conventional plate panning. In cell panning, the human scFv phage libraries were first mixed with T2 cells loaded with control peptides to remove scFv phage clones that bind to T2 cells alone or MHC alone. […] T2 is a TAP-deficient, HLA-A*02:01⁺ lymphoblast cell line that express low amounts of HLA-A*02 on the cell surface and can only present exogenous peptides. […] After extensive washing with PBS, peptide-loaded T2 cells with bound scFv antibody phage were spun down. […] The panning was performed for 3 rounds to enrich scFv phage clones that bound NDC80/HLA-A*02:01 specifically.

[2] = molecular target: T2, NC4 peptide … / HLA-A*02:01 complex (human); test: FACS, scFv phage on T2 cells loaded with single peptide
T2 construct: whole, on cells; On pulsed T2 cells

[3] = molecular target: T3, NC2 peptide … / HLA-A*02:01 complex (human); test: as above
T3 construct: whole, on cells; On pulsed T2 cells; also presented on JMN cells (HLA-A*02)

[4] = molecular target: T4, NC3 peptide … / HLA-A*02:01 complex (human); test: as above
T4 construct: whole, on cells; On pulsed T2 cells; also pulled down from BV173 lysate (HLA-A*02)

[5] = molecular target: T5, NC1 peptide … / HLA-A*02:01 complex (human); test: as above
T5 construct: whole, on cells; On pulsed T2 cells; also pulled down from BV173 lysate (HLA-A*02) and presented on JMN cells

Binder | binding result [1] | binding result [2] | binding result [3] | binding result [4] | binding result [5]
Clone 14 scFv phage clone (Clone 14 scFv) (scFv) scFv: QSVLTQPPSVSAAPGQRVTISCSGSTSNIGSNYVSWYQQFPGTAPKLLIYDSDKRISGIPDRFSGSKSGTSATLGITGLQTGDEADYYCGTWDSSLTVGVFGGGTKVTVLGSRGGGGSGGGGSGGGGSLEMAQLQLQESGPGLVKPSGTLSLTCAVSGGSISSSNWWSWVRQPPGKGLEWIGEIYHSGSTNYNPSLKSRVTISVDKSKNQFSLKLSSVTAADTAVYYCARYFGQKYDYWGQGTLVTVSS | binds | no binding | no binding | no binding | no binding
Clone 18 scFv phage clone (Clone 18 scFv) (scFv) scFv: QSVLTQPPSVSVAPGQKVTISCSGSSSNIGNNYVSWYQQLPGTAPKLLIYDNNKRPSGIPDRFSGSKSGTSATLGITGLQTGDEADYYCQSYDVYNMTSVFGGGTKLTVLGSRGGGGSGGGGSGGGGSLEMAQMQLVQSGAEVKKPGSSVKVSCKASGGTFSSYAISWVRQAPGQGLEWMGGIIPIFGTANYAQKFQGRVTITADESTSTAYMELSSLRSDDTAVYYCARGFSSWPGIDQWGQGTLVTVSS | binds | no binding | no binding | no binding | no binding
Clone 11 scFv phage clone (Clone 11 scFv) (scFv) scFv: NFMLTQPHSVSESPGKTVTISCTRSSGSIASNYVQWYQQRPGSAPTTVIYEDNQRPSGVPDRFSGSIDSSSNSASLTISGLKTEDEADYYCQSYDSSNVVFGGGTKLTVLGSRGGGGSGGGGSGGGGSLEMAQVQLVQSGAEVRKPGASVKVSCKASGYSFTSNGITWVRQAPGQGLEWMGWISGYNANTRYAQEFQARVTMTTDTSASTAYMELRSLRSDDTAVYYCARHAYWGGDSDYWGQGTLVTVSS | binds | no binding | no binding | no binding | no binding
Clone 12 scFv phage clone (scFv, V domains shown) VH: QVQLQESGPGLVKPSGTLSLTCAVSGGSISSSNWWSWVRQAPGKGLEWIGEIYHGGSTNFNPSLKSRVTISVDKSKNQFSLNLTSVTAADTAVYYCARYASSSHDFWGQGTLVTVSS VL: QSVLTQPPSVSAAPGQRVTIYCSGSRSNIVSNYVSWYQQLPGTAPKLLIYDNNKRPSGIPDRFSGSKSGTSATLGITGLQTGDEADYYCGTWDSSLSAYVFGTGTKVAVLG | binds | – | – | – | –
Clone 9 scFv phage clone (scFv, V domains shown) VH: QVQLQESGPGLVKPPGTLSLTCAVSGGSISSSNWWSWVRQPPGKGLEWIGEIYHSGSTNYNPSLKSRVTISVDKSKNQFSLKLSSVTAADTAVYYCARYEQGSHDSWGQGTLVTVSS VL: QSVLTQPPSVSAAPGQKVTISCSGSSSNIGSNYISWYQQLPGTAPKLLIYDNSKRPSGIPDRFSGFKSGTSATLGITGLQTGDEADYYCGTWDSSLSAYVFGSGTKVTVLG | binds | – | – | – | –
Clone 2 scFv phage clone (scFv, V domains shown, also called phage clone 2) VH: QVQLVQSGAEVKKPGSSVKVSCKASGGTFSSYAISWVRQAPGQGLEWMGWISAYNGNTNYAQKLQGRVTMTTDTSTSTAYMELRSLRSDDTAVYYCARKGFYSGFDSWGQGTLVTVSS VL: QSVLTQPPSVSAAPGQKVTISCSGSSSNIGSNYVSWYQQLPGTAPKLLIYDNTKRPSGIPDRFSGSKSGSSATLGITGLQTGDEADYYCETLDSSLSAYVFGTGTKVTVLG | binds | – | – | – | –
Clone 8 scFv phage clone (scFv, V domains shown) VH: QLQLQESGPGLVKPSETLSLTCTVSGDSISGYYWSWIRQPPGKGLEWIGEINHSGSTNYNPSLKSRVTISVDTSKNQFSLKLSSVTAADTAVYYCARYYSGFYSSDGWGQGTLVTVSS VL: QSVLTQPPSVSAAPRQKVTISCSGSSSNIGSNYVSWYQQLPGTAPKLLIYDNNKRPSGIPDRFSGSRSGTSATLGITGLQTGDEADYYCGSWDSSLSVYVFGTGTKVTVLG | binds | – | – | – | –
Clone 10 scFv phage clone (scFv, V domains shown) VH: QVQLQESGPGLVKPPGTLSLTCAVSGGSISSSNWWSWVRQPPGKGLEWIGEIYHSGSTNYNPSLNSRVIISDDTSKNQFSLTLTSVTAADTAVYYCARYYNSYYDSWGQGTLVTVSS VL: QSVLTQPPSVSAAPGQKVTISCSGSSSNIGSNYVSWYQQLPGTAPKLLIYDNNKRPSGIPDRFSGSKSGTSATLGITGLQTGDEADYYCGTWDSSLSAYVFGTGTKVTVLG | binds | – | – | – | –
Clone 15 scFv phage clone (scFv, V domains shown) VH: QVQLQESGPGLVKPSGTLSLTCAVSGGSISSSNWWSWVRQPPGKGLEWIGEIYHSGSTNYNPSLKSRVTISVDKSKNQFSLKLSSVTAADTAVYYCARYPGFVWDLWGQGTLVTVSS VL: QSVLTQPPSVSAAPGQKVTISCSGSSSNIGSNYVSWYQQLPGTAPKLLIYDNNKRPSGIPDRFSGSKSGTSAILGITGLQTGDEADYYCGTWDSSLTAGVFGTGTKVTVLG | binds | – | – | – | –
Clone 1 scFv phage clone (Clone 01 scFv) (scFv, also called phage clone 1) scFv: DIQLTQSPSSLSASVGDRVTITCRASQGIRNDLGWYQQKPGKAPKLMIYAASSLQSGVPSRFSGSGSGTDFTLTISSLQPEDFATYYCLQDYDYPLTFGGGTKLEIKRSRGGGGSGGGGSGGGGSLEMAEVQLVQSGAEVKKPGESLKISCEASGYSFSSNWIAWVRQRPGKGLEWMGIIYPGDSDTRYSPSFQGQVTMSADMSISTAYLQWSSLKASDTAMYYCARFAGPGMWSYGFDYWGQGTLVTVSS | binds | no binding | no binding | no binding | no binding
Clone 16 scFv phage clone (scFv, V domains shown) VH: QVQLVQSGAEVKKPGASVKVSCKASGYTFTSYYMHWVRQAPGQGLEWMGIINPSGGSTSYAQKFQGRVTMTRDTSTSTVYMELSSLRSEDTAVYYCARRGWLSWGYYGMDVWGQGTTVTVSS VL: not shown | binds | – | – | – | –
Clone 5 scFv phage clone (scFv, V domains shown) VH: QLQLQESGPGLVKPSGTLSLTCAVSGGSISSSNWWSWVRQPPGKGLEWIGEIYHSGSTNYNPSLKSRVTISVDKSKNQFSLKLSSVTAADTAVYYCARFIYGSSSSQTDTWGQGTLVTVSS VL: QSVLTQPPSVSAAPGQKVTISCSGSSSNIGSNYIYWYQQFPGTAPKLLIYDDNKRPSGIPDRFSGSRSGTSATLGITGLQTGDEADYYCGTWDSPLVAWVFGGGTKLTVLG | binds | – | – | – | –
Clone 4 scFv phage clone (scFv, V domains shown) VH: QVQLQQWGAGLLKPSETLSLTCAVYGGSFSGYYWSWIRQPPGKGLEWIGEINHSGSTNYNPSLKSRVTISVDTSKNQFSLKLSSVTAADTAVYYCARGVPYDYWGQGTLVTVSS VL: QSVLTQPPSVSAAAGQKVTISCSGSRSNIGSNFVSWYQLLPGTAPRLLIYDNNVRPSGIPDRFSGSKSGSSATLGITGLQTGDEADYYCGTWDSSLIAGVFGGGTKLTVLG | binds | – | – | – | –
Clone 6 scFv phage clone (scFv, V domains shown) VH: QVQLQQWGAGLLKPSETLSLTCAVYGGSFSGYYWSWIRQPPGKGLEWIGEINHSGSTNYNPSLKSRVTISVDTSKNQFSLKLSSVTAADTAVYYCARLEGSYYDVWGQGTLVTVSS VL: QSVLTQPPSVSAAPGQKVTVSCSGTTSDIGSNYVTWYQQLPGTTPKLIIYDNNKRPSGIPDRFSGSKSGTSGTLGITGLQTGDEADYYCGTWDSSLNTFVFGTGTKVTVLG | binds | – | – | – | –
